According to article PMC2172602:

Molecular target: αL-YFP/β2 (LFA-1 with dimerizing YFP on αL) on K562 cells (UniProt P20701)
Assay: FRET or BRET

Chain of UniProt P20701 (P20701 whole entry, looked up): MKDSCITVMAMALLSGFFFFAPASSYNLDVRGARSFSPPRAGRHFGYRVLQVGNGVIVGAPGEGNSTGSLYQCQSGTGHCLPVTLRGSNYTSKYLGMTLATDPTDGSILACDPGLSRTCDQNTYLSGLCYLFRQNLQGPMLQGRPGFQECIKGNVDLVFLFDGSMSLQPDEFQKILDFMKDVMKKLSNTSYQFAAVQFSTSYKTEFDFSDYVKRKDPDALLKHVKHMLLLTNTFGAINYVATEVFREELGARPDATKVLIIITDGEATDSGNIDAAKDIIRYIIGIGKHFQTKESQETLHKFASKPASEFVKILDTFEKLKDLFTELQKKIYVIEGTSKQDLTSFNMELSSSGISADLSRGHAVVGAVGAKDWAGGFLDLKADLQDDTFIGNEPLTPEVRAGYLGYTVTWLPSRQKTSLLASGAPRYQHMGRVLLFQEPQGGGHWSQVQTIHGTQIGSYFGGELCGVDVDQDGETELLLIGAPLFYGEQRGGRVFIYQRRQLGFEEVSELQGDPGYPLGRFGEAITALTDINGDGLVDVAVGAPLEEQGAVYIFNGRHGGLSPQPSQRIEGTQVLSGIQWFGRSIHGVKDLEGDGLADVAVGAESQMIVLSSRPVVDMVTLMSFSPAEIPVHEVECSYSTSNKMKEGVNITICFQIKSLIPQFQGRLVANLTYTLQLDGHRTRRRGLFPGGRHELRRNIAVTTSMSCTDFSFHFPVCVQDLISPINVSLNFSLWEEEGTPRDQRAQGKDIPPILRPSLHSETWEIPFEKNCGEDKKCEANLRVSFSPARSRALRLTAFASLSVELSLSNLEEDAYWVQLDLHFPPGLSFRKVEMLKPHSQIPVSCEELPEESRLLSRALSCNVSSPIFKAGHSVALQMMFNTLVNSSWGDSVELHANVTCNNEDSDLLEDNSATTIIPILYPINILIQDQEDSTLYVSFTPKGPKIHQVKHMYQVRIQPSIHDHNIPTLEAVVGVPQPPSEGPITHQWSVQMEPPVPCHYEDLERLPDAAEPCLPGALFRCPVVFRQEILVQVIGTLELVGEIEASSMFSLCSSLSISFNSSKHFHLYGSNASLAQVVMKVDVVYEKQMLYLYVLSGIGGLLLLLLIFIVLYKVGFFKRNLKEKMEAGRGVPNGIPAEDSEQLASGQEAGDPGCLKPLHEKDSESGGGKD

K (analogous to the dissociation constant of microclusters): 532
Substance: αL-CFP/β2 (LFA-1 with dimerizing CFP on αL) on K562 cells (from UniProt P20701 26-1170; P05107 23-769) (receptor)
